This series deals with Bacillus subtilis. Briefly: cleaved RNA product abundance (RNA/gDNA barcode ratio) relative to median wild-type variant (ratio to wild type); higher = more accumulation of the downstream cleavage product. The conditions noted are these: cleavage site: cggR-gapA (positions -7 to +36 mutated). The essentials: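 The B. subtilis chromosome carried reporter mRNAs, truncated aprE or tetM, containing barcoded RNase Y cleavage-site windows mutagenized using oligos with a 9% error rate. After growth in LB at 37°C from OD600 0.0003 to 0.3, cleaved RNA was gel-selected, reverse transcribed and barcode-sequenced next to genomic DNA barcodes, with UMI collapsing. Each construct's RNA:gDNA barcode ratio was scaled to the median construct with the unmutated site. That scaled ratio is reported as cleaved product abundance.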

Where [1] appears, read: experiment (reporter, strain, medium): exp 4a: truncated aprE reporter, strain BJT201 with 2% xylose (RNase J1 expressed).
Where [2] appears, read: experiment (reporter, strain, medium): exp 2b: truncated aprE reporter, strain BJT200.
The mark [3] stands for this setting: experiment (reporter, strain, medium): exp 6: tetM reporter, strain 168.

Take “ACAGACGAAGGAGCCGCAAAGAAGTTATTAAGGGATGAATAACCCCTCCATATAAATATCTCTCACTTATTTAAA”: the “cleaved RNA product abundance” value under setting [1] was 0.178.
In the case of “ACAGACGAAGGAGCCGCAAAGAAGTTATTAAGGGATGAATAACCCCTCTATATAAATATCTCTCACTTATTTAAA”, the “cleaved RNA product abundance” value under setting [1] worked out at 0.229.
Regarding “ACAGACGAAGGAGCCGCAAAGAAGTTATTAAGGGATGAATAACCCCTTAATATAAATATCTCTCACTTATTTAAA”, the “cleaved RNA product abundance” value under setting [2] stood at 1.34 and the “cleaved RNA product abundance” value under setting [1] was found to be 0.505.
As to “ACAGACGAAGGAGCCGCAAAGAAGTTATTAAGGGATGAATAACCCTTCAATATAAATATCTCTCACTTATTTAAA”, the “cleaved RNA product abundance” value under setting [1] came to 0.346.
Take “ACAGACGAAGGAGCCGCAAAGAAGTTATTAAGGGATGAATAACCTCTCAATATAAATATCTCTCACTTATTTAAA”: under setting [1], the “cleaved RNA product abundance” value was determined as 0.151.
Turning to “ACAGACGAAGGAGCCGCAAAGAAGTTATTAAGGGATGAATAACTCCTCAATATAAATATCTCTCACTTATTTAAA”, the “cleaved RNA product abundance” value came to 0.14 under setting [2] and 0.149 under setting [1].
With “ACAGACGAAGGAGCCGCAAAGAAGTTATTAAGGGATGAATAAGCCCTAAATATAAATATCTCTCACTTATTTAAA”, the “cleaved RNA product abundance” value is, setting by setting: under setting [2], 0.342; under setting [1], 0.528.
On to “ACAGACGAAGGAGCCGCAAAGAAGTTATTAAGGGATGAATAAGCCCTCAAAATAAATATCTCTCACTTATTTAAA”, for which the “cleaved RNA product abundance” value under setting [1] was found to be 0.261.
Still for that read-out and setting: next, “ACAGACGAAGGAGCCGCAAAGAAGTTATTAAGGGATGAATAAGCCCTCAAGATAAATATCTCTCACTTATTTAAA”: 0.176; “ACAGACGAAGGAGCCGCAAAGAAGTTATTAAGGGATGAATAAGCCCTCAATATAAATAGCTCTCACTTATTTAAA”: 0.406.
Take “ACAGACGAAGGAGCCGCAAAGAAGTTATTAAGGGATGAATAAGCCCTCAATATAAATATCTCTCACTTATTTAAA”: the “cleaved RNA product abundance” value under setting [2] came out at 0.683, the “cleaved RNA product abundance” value under setting [1] stood at 0.634 and the “cleaved RNA product abundance” value under setting [3] stood at 0.775.
For “ACAGACGAAGGAGCCGCAAAGAAGTTATTAAGGGATGAATAAGCCTTCAATATAAATATCTCTCACTTATTTAAA”, under setting [1], the “cleaved RNA product abundance” value came to 0.171.
In the case of “ACAGACGAAGGAGCCGCAAAGAAGTTATTAAGGGATGAATAATAACTCAATATAAATATCTCTCACTTATTTAAA”, the “cleaved RNA product abundance” value worked out at 0.0902 under setting [2] and 0.128 under setting [1].
On to “ACAGACGAAGGAGCCGCAAAGAAGTTATTAAGGGATGAATAATACATCAATATAAATATCTCTCACTTATTTAAA”, for which the “cleaved RNA product abundance” value under setting [1] was found to be 0.0848.
For the sequence “ACAGACGAAGGAGCCGCAAAGAAGTTATTAAGGGATGAATAATACCACAATATAAATATCTCTCACTTATTTAAA”, the “cleaved RNA product abundance” value under setting [2] stood at 0.0894 and the “cleaved RNA product abundance” value under setting [1] amounted to 0.0911.
Consider “ACAGACGAAGGAGCCGCAAAGAAGTTATTAAGGGATGAATAATACCCCAATATAAATATCTCTCACTTATTTAAA”, for which the “cleaved RNA product abundance” value under setting [1] was 0.149.
On to “ACAGACGAAGGAGCCGCAAAGAAGTTATTAAGGGATGAATAATACCTAAATATAAATATCTCTCACTTATTTAAA”, for which the “cleaved RNA product abundance” value is 0.12 under setting [2] and 0.132 under setting [1].
As to “ACAGACGAAGGAGCCGCAAAGAAGTTATTAAGGGATGAATAATACCTCAAAATAAATATCTCTCACTTATTTAAA”, the “cleaved RNA product abundance” value under setting [1] was 0.155.
Take “ACAGACGAAGGAGCCGCAAAGAAGTTATTAAGGGATGAATAATACCTCAAGATAAATATCTCTCACTTATTTAAA”: the “cleaved RNA product abundance” value under setting [2] stood at 0.102 and the “cleaved RNA product abundance” value under setting [1] turned out to be 0.124.
For the sequence “ACAGACGAAGGAGCCGCAAAGAAGTTATTAAGGGATGAATAATACCTCAATACAAATATCTCTCACTTATTTAAA”, the “cleaved RNA product abundance” value under setting [1] was 0.0658.
With “ACAGACGAAGGAGCCGCAAAGAAGTTATTAAGGGATGAATAATACCTCAATATAAAAATCTCTCACTTATTTAAA”, the “cleaved RNA product abundance” value is 0.144 under setting [2] and 0.179 under setting [1].
On to “ACAGACGAAGGAGCCGCAAAGAAGTTATTAAGGGATGAATAATACCTCAATATAAACATCTCTCACTTATTTAAA”, for which the “cleaved RNA product abundance” value under setting [1] amounted to 0.108.
In the case of “ACAGACGAAGGAGCCGCAAAGAAGTTATTAAGGGATGAATAATACCTCAATATAAATAACTCTCACTTATTTAAA”, the “cleaved RNA product abundance” value by setting is: under setting [2], 0.144; under setting [1], 0.0774.
For the sequence “ACAGACGAAGGAGCCGCAAAGAAGTTATTAAGGGATGAATAATACCTCAATATAAATACCTCTCACTTATTTAAA”, the “cleaved RNA product abundance” value under setting [1] is 0.162.
“ACAGACGAAGGAGCCGCAAAGAAGTTATTAAGGGATGAATAATACCTCAATATAAATATCTCTCACTTATTAAAG”: the “cleaved RNA product abundance” value under setting [1] was 0.148.
As for “ACAGACGAAGGAGCCGCAAAGAAGTTATTAAGGGATGAATAATACCTCAATATAAATATCTCTCACTTATTTAAA”, the “cleaved RNA product abundance” value is 0.117 under setting [2], 0.152 under setting [1] and 0.151 under setting [3].
For “ACAGACGAAGGAGCCGCAAAGAAGTTATTAAGGGATGAATAATACCTCAATATAAATTTCTCTCACTTATTTAAA”, the “cleaved RNA product abundance” value under setting [1] turned out to be 0.15.
Consider “ACAGACGAAGGAGCCGCAAAGAAGTTATTAAGGGATGAATAATACCTCAATATAATTATCTCTCACTTATTTAAA”, for which, under setting [1], the “cleaved RNA product abundance” value amounted to 0.165.
In the case of “ACAGACGAAGGAGCCGCAAAGAAGTTATTAAGGGATGAATAATACCTCAATATACATATCTCTCACTTATTTAAA”, the “cleaved RNA product abundance” value under setting [1] came to 0.123.
Same read-out and setting: then “ACAGACGAAGGAGCCGCAAAGAAGTTATTAAGGGATGAATAATACCTCAATATAGATATCTCTCACTTATTTAAA”, with 0.147; and “ACAGACGAAGGAGCCGCAAAGAAGTTATTAAGGGATGAATAATACCTCAATATATATATCTCTCACTTATTTAAA”, with 0.123.
For the sequence “ACAGACGAAGGAGCCGCAAAGAAGTTATTAAGGGATGAATAATACCTCAATATTAATATCTCTCACTTATTTAAA”, the “cleaved RNA product abundance” value runs as follows: under setting [2], 0.0803; under setting [1], 0.0425; under setting [3], 0.0694.
Regarding “ACAGACGAAGGAGCCGCAAAGAAGTTATTAAGGGATGAATAATACCTCAATTTAAATATCTCTCACTTATTTAAA”, the “cleaved RNA product abundance” value under setting [2] is 0.0845 and the “cleaved RNA product abundance” value under setting [1] stood at 0.0904.
Take “ACAGACGAAGGAGCCGCAAAGAAGTTATTAAGGGATGAATAATACCTCATTATAAATATCTCTCACTTATTTAAA”: the “cleaved RNA product abundance” value under setting [1] is 0.117.
Turning to “ACAGACGAAGGAGCCGCAAAGAAGTTATTAAGGGATGAATAATACCTCCATATAAATATCTCTCACTTATTTAAA”, the “cleaved RNA product abundance” value by setting is: under setting [2], 0.069; under setting [1], 0.092.
As to “ACAGACGAAGGAGCCGCAAAGAAGTTATTAAGGGATGAATAATACCTCGATATAAATATCTCTCACTTATTTAAA”, the “cleaved RNA product abundance” value reads like this: under setting [2], 0.0828; under setting [1], 0.103.
In the case of “ACAGACGAAGGAGCCGCAAAGAAGTTATTAAGGGATGAATAATACCTCTATATAAATATCTCTCACTTATTTAAA”, under setting [1], the “cleaved RNA product abundance” value was 0.156.
Take “ACAGACGAAGGAGCCGCAAAGAAGTTATTAAGGGATGAATAATACCTGAATATAAATATCTCTCACTTATTTAAA”: the “cleaved RNA product abundance” value is, setting by setting: under setting [2], 0.093; under setting [1], 0.107.
As to “ACAGACGAAGGAGCCGCAAAGAAGTTATTAAGGGATGAATAATACCTTAATATAAATATCTCTCACTTATTTAAA”, the “cleaved RNA product abundance” value under setting [1] is 0.424.
With “ACAGACGAAGGAGCCGCAAAGAAGTTATTAAGGGATGAATAATACGTCAATATAAATATCTCTCACTTATTTAAA”, the “cleaved RNA product abundance” value runs as follows: under setting [2], 0.0926; under setting [1], 0.0816.
Regarding “ACAGACGAAGGAGCCGCAAAGAAGTTATTAAGGGATGAATAATACTTCAATATAAATATCTCTCACTTATTTAAA”, the “cleaved RNA product abundance” value runs as follows: under setting [2], 0.094; under setting [1], 0.111.
With “ACAGACGAAGGAGCCGCAAAGAAGTTATTAAGGGATGAATAATAGCTCAATATAAATATCTCTCACTTATTTAAA”, the “cleaved RNA product abundance” value under setting [1] worked out at 0.13.
In the case of “ACAGACGAAGGAGCCGCAAAGAAGTTATTAAGGGATGAATAATATCTCAATATAAATATCTCTCACTTATTTAAA”, the “cleaved RNA product abundance” value by setting is: under setting [2], 0.0986; under setting [1], 0.116.
For “ACAGACGAAGGAGCCGCAAAGAAGTTATTAAGGGATGAATAATCAATCAATATAAATATCTCTCACTTATTTAAA” the same measures were 0.13 and 0.107.
In the case of “ACAGACGAAGGAGCCGCAAAGAAGTTATTAAGGGATGAATAATCACACAATATAAATATCTCTCACTTATTTAAA”, the “cleaved RNA product abundance” value stood at 0.114 under setting [2] and 0.142 under setting [1].
For the sequence “ACAGACGAAGGAGCCGCAAAGAAGTTATTAAGGGATGAATAATCACCCAATATAAATATCTCTCACTTATTTAAA”, under setting [1], the “cleaved RNA product abundance” value came out at 0.129.
For the sequence “ACAGACGAAGGAGCCGCAAAGAAGTTATTAAGGGATGAATAATCACTAAATATAAATATCTCTCACTTATTTAAA”, the “cleaved RNA product abundance” value under setting [1] was 0.142.
As to “ACAGACGAAGGAGCCGCAAAGAAGTTATTAAGGGATGAATAATCACTCAAAATAAATATCTCTCACTTATTTAAA”, the “cleaved RNA product abundance” value reads like this: under setting [2], 0.0846; under setting [1], 0.122.
For the sequence “ACAGACGAAGGAGCCGCAAAGAAGTTATTAAGGGATGAATAATCACTCAACATAAATATCTCTCACTTATTTAAA”, under setting [1], the “cleaved RNA product abundance” value came out at 0.123.
Consider “ACAGACGAAGGAGCCGCAAAGAAGTTATTAAGGGATGAATAATCACTCAAGATAAATATCTCTCACTTATTTAAA”, for which the “cleaved RNA product abundance” value under setting [2] amounted to 0.0892.
On to “ACAGACGAAGGAGCCGCAAAGAAGTTATTAAGGGATGAATAATCACTCAATAAAAATATCTCTCACTTATTTAAA”, for which, under setting [1], the “cleaved RNA product abundance” value worked out at 0.0861.
Take “ACAGACGAAGGAGCCGCAAAGAAGTTATTAAGGGATGAATAATCACTCAATATAAAAATCTCTCACTTATTTAAA”: the “cleaved RNA product abundance” value under setting [1] amounted to 0.136.

Source of the values: the supplement of paper PMC11780869.
